Experiment [1] has as its target rat liver AMPK α1 isoform (affinity purified α1 AMPK, native enzyme) (rat) (UniProt P54645). The experiment in a line: peptide substrate affinity chromatography of rat liver preparations, single pass.
Experiment [2] shares this target. The experiment in a line: peptide substrate affinity chromatography of rat liver preparations, with recycling.

Sequence of UniProt P54645 (P54645 whole entry, form in doubt, chain 1 of 2, canonical isoform): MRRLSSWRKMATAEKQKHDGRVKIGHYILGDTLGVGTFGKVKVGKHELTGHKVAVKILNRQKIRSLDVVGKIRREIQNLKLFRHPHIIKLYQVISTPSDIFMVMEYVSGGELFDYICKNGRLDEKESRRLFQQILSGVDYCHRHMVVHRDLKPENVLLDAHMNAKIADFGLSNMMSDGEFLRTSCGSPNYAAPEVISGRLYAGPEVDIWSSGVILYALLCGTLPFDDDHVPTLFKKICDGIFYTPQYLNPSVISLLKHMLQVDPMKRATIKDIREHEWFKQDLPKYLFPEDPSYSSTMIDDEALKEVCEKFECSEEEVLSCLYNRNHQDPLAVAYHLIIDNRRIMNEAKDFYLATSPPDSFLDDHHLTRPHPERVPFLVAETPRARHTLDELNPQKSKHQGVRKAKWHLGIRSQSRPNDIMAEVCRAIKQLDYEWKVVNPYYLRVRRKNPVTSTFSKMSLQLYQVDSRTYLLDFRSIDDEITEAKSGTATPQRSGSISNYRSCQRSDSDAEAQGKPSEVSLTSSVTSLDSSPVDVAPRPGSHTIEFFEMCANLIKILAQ
Sequence of UniProt P54645 (P80385 whole entry, form in doubt, chain 2 of 2, further chain, canonical isoform): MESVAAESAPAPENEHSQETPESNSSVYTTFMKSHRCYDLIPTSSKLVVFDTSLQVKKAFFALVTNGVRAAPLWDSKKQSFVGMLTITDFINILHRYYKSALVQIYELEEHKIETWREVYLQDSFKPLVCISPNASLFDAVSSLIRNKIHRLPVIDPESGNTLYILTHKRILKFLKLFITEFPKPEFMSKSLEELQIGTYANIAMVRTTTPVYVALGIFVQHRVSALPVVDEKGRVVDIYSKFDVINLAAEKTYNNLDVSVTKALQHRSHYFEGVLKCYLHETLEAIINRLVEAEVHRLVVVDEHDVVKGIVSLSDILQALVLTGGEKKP

In turn, ADR1 (222-234)P229 peptide registered a proportion of SAMS peptide phosphotransferase activity bound to the peptide affinity column with a single pass in experiment [1] of 90 to 92%. The substance also came in with a proportion of SAMS peptide phosphotransferase activity bound to the column with recycling in experiment [2] of 94%.

The values above are taken from patent EP0873354B1.
